The numbers were not newly measured in publication PMC8070608, which cites them from elsewhere.

Like-named read-outs stand apart in the source and are kept apart here.

For data set [1], the target named is plasminogen (Homo sapiens) (UniProt P00747).
In data set [2] the target is tPA (Homo sapiens) (UniProt P00750).
Data set [3] shares this target. The source holds these as a separate data set.

Sequence of UniProt P00750 (P00750 36-562): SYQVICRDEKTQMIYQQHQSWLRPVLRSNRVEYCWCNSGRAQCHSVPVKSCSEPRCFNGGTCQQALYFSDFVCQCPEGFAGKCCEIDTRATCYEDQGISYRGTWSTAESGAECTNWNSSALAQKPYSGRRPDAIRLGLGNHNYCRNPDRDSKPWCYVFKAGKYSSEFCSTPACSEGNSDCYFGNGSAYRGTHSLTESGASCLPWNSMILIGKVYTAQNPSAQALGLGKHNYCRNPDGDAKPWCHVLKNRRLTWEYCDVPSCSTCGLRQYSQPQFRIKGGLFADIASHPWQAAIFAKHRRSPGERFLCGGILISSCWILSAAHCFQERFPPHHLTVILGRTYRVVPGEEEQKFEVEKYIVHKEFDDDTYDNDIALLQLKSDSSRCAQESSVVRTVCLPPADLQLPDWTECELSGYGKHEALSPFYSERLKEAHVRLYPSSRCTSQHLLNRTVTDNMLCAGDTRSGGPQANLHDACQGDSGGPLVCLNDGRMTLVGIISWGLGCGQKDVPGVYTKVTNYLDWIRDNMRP
Sequence of UniProt P00747 (P00747 20-810): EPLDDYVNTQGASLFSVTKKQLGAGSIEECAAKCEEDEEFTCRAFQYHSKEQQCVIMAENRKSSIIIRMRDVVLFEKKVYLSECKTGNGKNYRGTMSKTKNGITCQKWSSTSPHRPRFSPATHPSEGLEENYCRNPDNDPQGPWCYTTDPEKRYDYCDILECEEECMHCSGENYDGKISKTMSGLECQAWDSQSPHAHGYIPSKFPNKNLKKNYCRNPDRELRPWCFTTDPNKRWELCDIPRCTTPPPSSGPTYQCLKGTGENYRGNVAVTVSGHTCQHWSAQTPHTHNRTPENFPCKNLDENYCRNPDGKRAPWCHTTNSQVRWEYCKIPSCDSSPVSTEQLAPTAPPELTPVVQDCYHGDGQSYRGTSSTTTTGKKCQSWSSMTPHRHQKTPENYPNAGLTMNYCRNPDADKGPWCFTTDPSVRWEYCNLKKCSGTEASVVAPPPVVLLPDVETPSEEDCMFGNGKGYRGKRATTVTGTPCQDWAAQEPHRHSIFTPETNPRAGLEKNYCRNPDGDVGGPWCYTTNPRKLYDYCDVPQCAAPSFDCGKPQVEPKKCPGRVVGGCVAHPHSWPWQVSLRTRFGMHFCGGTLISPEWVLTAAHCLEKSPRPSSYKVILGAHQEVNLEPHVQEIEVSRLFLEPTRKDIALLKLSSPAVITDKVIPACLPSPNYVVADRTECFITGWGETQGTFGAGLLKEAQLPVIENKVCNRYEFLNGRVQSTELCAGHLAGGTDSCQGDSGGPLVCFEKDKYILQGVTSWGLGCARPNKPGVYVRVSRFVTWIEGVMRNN

On to p11 (from UniProt P60903), for which the results for the dissociation constant (Kd) (in data set [1]; in the data set with tPA (Homo sapiens) [2]) were 110 nM and 680 nM, respectively.

Take p36 (annexin A2) (from UniProt P07355): the Kd in the data set with tPA (Homo sapiens) [3] is 48 nM.

One may read the Kd as a measure of binding affinity in units of concentration.
